Molecular target: SARS-CoV-2 spike receptor binding domain (SARS-CoV-2, UniProt P0DTC2)
Assay: cryo-EM structure

B1: REGN10985 Fab (Fab, V domains shown)
VH: EVQLVESGGGLVQPGRSLRLSCAASGFTFDDYAMHWVRQAPGKGLEWVSGISWNRGSIGYADSVKGRFTISRDNAKNSLYLQMSSLRAEDTALYYCAKDGERWDSVVVPSARNGMDVWGQGTTVTVSS
VL: QSVLTQPPSVSGAPGQRVTISCTGSSSNIGAGYDVHWYQQLPGTAPKLLIYGNSNRPSGVPDRFSGSKSGTSASLAITGLQAEDEADYYCQSYDSSLSGSYVFGTGTKVTVL
binding result: binds

B2: REGN10989 Fab (Fab, V domains shown)
VH: QVQLVQSGAEVKKPGASVKVSCKASGYIFTGYYMHWVRQAPGQGLEWMGWINPNSGGANYAQKFQGRVTLTRDTSITTVYMELSRLRFDDTAVYYCARGSRYDWNQNNWFDPWGQGTLVTVSS
VL: QSALTQPASVSGSPGQSITISCTGTSSDVGTYNYVSWYQQHPGKAPKLMIFDVSNRPSGVSDRFSGSKSGNTASLTISGLQAEDEADYYCSSFTTSSTVVFGGGTKLTVL
binding result: binds

From PMC8179113 (Cell, 2021)
